Test results reported in US20160257744A1 (Genentech, published 2016).
Changes are numbered by the printed parent chain.

T1: interleukin 4 (IL4) (UniProt P05112 25-153)
T1 sequence (looked up): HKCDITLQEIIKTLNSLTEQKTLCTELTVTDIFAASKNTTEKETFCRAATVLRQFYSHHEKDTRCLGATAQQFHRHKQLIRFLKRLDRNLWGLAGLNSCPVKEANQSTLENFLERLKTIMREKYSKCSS

T2: interleukin 5 (IL5) (human, UniProt P05113 20-134)
T2 construct: also called human IL5 (R&D Systems)
T2 sequence (looked up): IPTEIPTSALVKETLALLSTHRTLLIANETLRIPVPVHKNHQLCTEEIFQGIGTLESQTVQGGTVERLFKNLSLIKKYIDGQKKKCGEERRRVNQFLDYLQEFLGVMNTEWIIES

B1: humanized antibody 19C11 (hu19C11) wild-type Fab displayed on M13 phage (Fab, V domains shown)
VH: EVQLVQSGAEVKKPGASVKVSCKASGYTFTDYSMHWVRQAPGQGLEWIVWINTETGEPTYADDFKGRVTITRDTSTSTAYLELSSLRSEDTAVYYCARGGIFYGMDYWGQGTLVTVSS
VL: DIQMTQSPSSLSASVGDRVTITCKASQSVINDAAWYQQKPGKAPKLLIYYTSHRYTGVPSRFSGSGSGTDFTLTISSLQEDFATYYCQQDYTSPWTFGQGTKVEIKR
notes: Phagemid pV0115: light chain with gD expression tag fused to its C-terminus; VH-CH1 followed by hinge piece KTHTC and M13 minor coat protein p3 (bivalent Fab display); Humanized in germline VH1 / kappa I backbone; also called hu19C11 wt; Fab-displaying phage
B2: E7 purified as Fab (Fab, V domains shown)
VH: EVQLVQSGAEVKKPGASVKVSCKASGYTFTDYFIHWVRQAPGQGLEWIAGIVYDATGFTTYADDFKGRVTITRDTSTSTAYLELSSLRSEDTAVYYCARGGIFYGMDYWGQGTLVTVSS
VL: B1 VL
notes: also called IL4/IL5 dual specific clone E7
B3: 5A, anti-IL5 specific variant of hu19C11, Fab displayed on phage (Fab, V domains shown)
VH: B1 VH with S33D, M34I, G99E, G100I, I101L
VL: B1 VL
notes: also called clone 5A

Assays:
interleukin 4 (IL4) [1] = molecular target: T1, interleukin 4 (IL4); test: phage competition ELISA: Fab-phage incubated 2 h with serial dilutions of the antigen in solution, unbound phage captured on antigen-coated wells, anti-M13-HRP; IC50 = antigen concentration inhibiting 50% of phage binding
Protocol: (§1) Fab displaying phage was first incubated with serial dilutions of the respective antigens in solution for 2 h, unbound phage was then briefly captured by antigen coated ELISA wells and detected with anti-M13 HRP conjugate. The concentration of antigen inhibiting 50% of phage binding to antigen coated well is calculated as IC₅₀. NB denotes no detectable binding of phage clone directly to the antigens coated wells.

interleukin 4 (IL4) [2] = molecular target: T1, interleukin 4 (IL4); test: phage ELISA, Fab-displaying phage on IL4
From the text: Anti-gD antibody was directly coated on ELISA wells, whereas IL4 was captured with a non-blocking anti-IL4 antibody coated on ELISA wells.

interleukin 5 (IL5) [3] = molecular target: T2, interleukin 5 (IL5); test: phage ELISA: direct binding of the phage clone to antigen-coated wells (NB = no detectable binding)
interleukin 13 (IL13) = interleukin 13 (IL13) (UniProt P35225 35-146, limits assumed); test: as above
Chain of interleukin 13 (IL13) (P35225 35-146 limits assumed): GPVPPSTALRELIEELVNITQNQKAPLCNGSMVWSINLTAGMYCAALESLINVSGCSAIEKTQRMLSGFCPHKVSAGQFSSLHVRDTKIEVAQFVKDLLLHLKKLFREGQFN

interleukin 5 (IL5) [4] = molecular target: T2, interleukin 5 (IL5); test: SPR (Biacore), Fab over immobilized human IL5, 25 °C
interleukin 5 (IL5) [5] = molecular target: T2, interleukin 5 (IL5); test: phage competition ELISA: Fab-phage incubated 2 h with serial dilutions of the antigen in solution, unbound phage captured on antigen-coated wells, anti-M13-HRP; IC50 = antigen concentration inhibiting 50% of phage binding
Protocol: as §1

interleukin 4 (IL4) [6] = molecular target: T1, interleukin 4 (IL4); test: phage ELISA: direct binding of the phage clone to antigen-coated wells (NB = no detectable binding)

| Binder | IC50 (interleukin 4 (IL4) [1]) [nM] | EC50 (interleukin 4 (IL4) [2]) [nM] | binding result (interleukin 5 (IL5) [3]) | binding result (interleukin 13 (IL13)) | Kd (interleukin 5 (IL5) [4]) [nM] | IC50 (interleukin 5 (IL5) [5]) [nM] | binding result (interleukin 4 (IL4) [6]) |
| --- | --- | --- | --- | --- | --- | --- | --- |
| B1 | 1.1 | 1 | no binding | no binding |  |  |  |
| B2 |  |  |  |  | 905 |  |  |
| B3 |  |  |  | no binding |  | ~1000 | no binding |
